Test results: article PMC9732815 (Cell reports, 2022)
Like-named read-outs stand apart in the source and are kept apart here.

Columns and labels:
Apn2Cat(D222N/E59Q) [1] = target: T1, Apn2Cat(D222N/E59Q) (Saccharomyces cerevisiae, UniProt P38207 1-407, E59Q;D222N); assay: X-ray crystallography
T1 sequence: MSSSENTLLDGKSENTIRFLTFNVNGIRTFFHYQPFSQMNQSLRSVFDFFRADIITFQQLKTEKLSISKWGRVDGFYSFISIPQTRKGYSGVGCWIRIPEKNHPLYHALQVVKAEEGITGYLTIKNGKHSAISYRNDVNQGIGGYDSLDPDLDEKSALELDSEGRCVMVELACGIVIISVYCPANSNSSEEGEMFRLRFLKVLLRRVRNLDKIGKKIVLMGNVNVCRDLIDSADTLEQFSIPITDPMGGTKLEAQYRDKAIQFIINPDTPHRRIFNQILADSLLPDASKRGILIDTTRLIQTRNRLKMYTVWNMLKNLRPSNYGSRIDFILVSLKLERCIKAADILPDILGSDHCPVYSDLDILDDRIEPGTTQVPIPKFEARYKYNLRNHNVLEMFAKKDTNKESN

Apn2Cat(D222N/E59Q) [2] = target: T1, Apn2Cat(D222N/E59Q); assay: X-ray crystallography; remark: listed apart in the source
crystal structure = target: the molecule itself; assay: crystal structure

B1: duplex 1 (strand A self-annealed) (dsDNA)
DNA 1: TCCGAAATTTCGG
DNA 2: TCCGAAATTTCGG
modifications: five phosphorothioate bonds at the 3' end of each strand (TCCGAAAT*T*T*C*G*G)
binding result (Apn2Cat(D222N/E59Q) [1]): binds

B2: duplex 2 (strand A + strand B) (dsDNA)
DNA 1: TCCGAAATTTCGG
DNA 2: CCGAAATTTCGGA
modifications: five phosphorothioate bonds at the 3' end of each strand (A TCCGAAAT*T*T*C*G*G; B CCGAAATT*T*C*G*G*A)
binding result (Apn2Cat(D222N/E59Q) [2]): binds

B3: Recombinant S. cerevisiae Apn2^Cat (residues 1–407) (domain or fragment, UniProt P38207 1-407, looked up)
chain: MSSSENTLLDGKSENTIRFLTFNVNGIRTFFHYQPFSQMNQSLRSVFDFFRADIITFQELKTEKLSISKWGRVDGFYSFISIPQTRKGYSGVGCWIRIPEKNHPLYHALQVVKAEEGITGYLTIKNGKHSAISYRNDVNQGIGGYDSLDPDLDEKSALELDSEGRCVMVELACGIVIISVYCPANSNSSEEGEMFRLRFLKVLLRRVRNLDKIGKKIVLMGDVNVCRDLIDSADTLEQFSIPITDPMGGTKLEAQYRDKAIQFIINPDTPHRRIFNQILADSLLPDASKRGILIDTTRLIQTRNRLKMYTVWNMLKNLRPSNYGSRIDFILVSLKLERCIKAADILPDILGSDHCPVYSDLDILDDRIEPGTTQVPIPKFEARYKYNLRNHNVLEMFAKKDTNKESN
stoichiometry N (crystal structure): 2
